This assay concerns the target mouse TMEM106B (mouse) (UniProt Q80X71). In words: FACS Neuro2a.

Consider Negative ctrl #1 (antibody), for which the MFI is 220. The result for Negative ctrl #2 (antibody) reads 235. Take Negative ctrl #3 (antibody): the MFI stood at 216.

The record behind these values is patent US20230303681A1.
